Columns and labels:
Experiment in all cases: cell-based or functional assay
[1] = target: T1, recombinant human CCL20 (R&D Systems, #360-MP-025/CF) (human, UniProt P78556 27-96)
[2] = target: T1, recombinant human CCL20 (R&D Systems, …); remark: listed apart in the source
[3] = target: T1, recombinant human CCL20 (R&D Systems, …); remark: listed apart in the source

T1 sequence (P78556 other isoform, or with tags, fused parts or gaps limits assumed): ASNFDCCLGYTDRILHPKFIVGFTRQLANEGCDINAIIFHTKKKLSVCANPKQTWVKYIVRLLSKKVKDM

Binder	IC90 of chemotaxis inhibition [1] [nM]	IC50 of chemotaxis inhibition [2] [nM]	IC95 of chemotaxis inhibition [3] [nM]	IC50 of chemotaxis inhibition (block of heavy chains 36HKK1 to 36HKK3) [2] [nM]	IC50 of chemotaxis inhibition (block of heavy chains 36HKK3, 36HC2, 36HC3) [2] [nM]
humanized anti-human CCL20 antibody 36LK3/42HKK1 (antibody, human IgG1, kappa, V domains shown) VH: QVQLVQSGAEVKKPGASVKVSCKASGYTFTSYWMHWVRQAPGQGLEWMGLIDPSDKYTNYNQKFKGRVTMTRDTSTSTVYMELSSLRSEDTAVYYCARGNYGVDYGMDYWGQGTLVTVSS VL: DIQMTQSPSSLSASVGDRVTITCGASENIYGALNWYQRKPGKAPKLLIYGATNLADGVPSRFSGSGSGRDYTLTISSLQPEDFATYYCQNVLITPYTFGQGTKLEIKR	4.86	1.36	9.02		
humanized anti-human CCL20 antibody 36LK3/42HKK2 (antibody, human IgG1, kappa, V domains shown) VH: QVQLVQSGAEVKKPGASVKVSCKASGYTFTSYWMHWVRQAPGQGLEWMGLIDPSDKYTNYNQKFKGRVTLTVDTSTSTVYMELSSLRSEDTAVYYCTRGNYGVDYGMDYWGQGTLVTVSS VL: DIQMTQSPSSLSASVGDRVTITCGASENIYGALNWYQRKPGKAPKLLIYGATNLADGVPSRFSGSGSGRDYTLTISSLQPEDFATYYCQNVLITPYTFGQGTKLEIKR	6.54	1.66	15.3		
humanized anti-human CCL20 antibody 36LK3/42HKK3 (antibody, human IgG1, kappa, V domains shown) VH: QVQLVQSGAEVKKPGASVKVSCKASGYTFTSYWMHWVRQAPGQGLEWMGLIDPSDKYTNYNQKFKGKATLTVDTSTSTAYMELSSLRSEDTAVYYCTRGNYGVDYGMDYWGQGTLVTVSS VL: DIQMTQSPSSLSASVGDRVTITCGASENIYGALNWYQRKPGKAPKLLIYGATNLADGVPSRFSGSGSGRDYTLTISSLQPEDFATYYCQNVLITPYTFGQGTKLEIKR	5.65	1.47	10.8		
humanized anti-human CCL20 antibody 36LC3/36HKK3 (antibody, human IgG1, kappa, V domains shown) VH: QVQLVQSGAEVKKPGASVKVSCKASGYTFTNYWMHWVRQAPGQGLEWMGVIDPSDSYTTYNQKFKGKATLTVDTSTSTAYMELSSLRSEDTAVYYCTRGNYGVDYAMDYWGQGTLVTVSS VL: DIQMTQSPSSLSASVGDRVTITCRASENIYGALNWYQQKPGKAPKLLIYGATNLADGVPSRFSGSGSGRQYSLTISSLQPEDFATYYCQNVLITPYTFGGGTKLEIKR	4.33	1.26	9.75		
humanized anti-human CCL20 antibody 36LK3/36HKK3 (antibody, human IgG1, kappa, V domains shown) VH: QVQLVQSGAEVKKPGASVKVSCKASGYTFTNYWMHWVRQAPGQGLEWMGVIDPSDSYTTYNQKFKGKATLTVDTSTSTAYMELSSLRSEDTAVYYCTRGNYGVDYAMDYWGQGTLVTVSS VL: DIQMTQSPSSLSASVGDRVTITCGASENIYGALNWYQRKPGKAPKLLIYGATNLADGVPSRFSGSGSGRDYTLTISSLQPEDFATYYCQNVLITPYTFGQGTKLEIKR				1.31	1.21
36LC3/36HC3 (antibody, human IgG1, kappa, V domains shown) VH: QVQLVQSGAEVKKPGASVKVSCKASGYTFTNYWMHWVKQAPGQGLEWIGVIDPSDSYTTYNQKFKGKATMTRDTSTSTVYMELSSLRSEDTAVYYCTRGNYGVDYAMDYWGQGTSVTVSS VL: DIQMTQSPSSLSASVGDRVTITCRASENIYGALNWYQQKPGKAPKLLIYGATNLADGVPSRFSGSGSGRQYSLTISSLQPEDFATYYCQNVLITPYTFGGGTKLEIKR	6.34	1.33			
humanized anti-human CCL20 antibody 36LK3/36HC3 (antibody, human IgG1, kappa, V domains shown) VH: QVQLVQSGAEVKKPGASVKVSCKASGYTFTNYWMHWVKQAPGQGLEWIGVIDPSDSYTTYNQKFKGKATMTRDTSTSTVYMELSSLRSEDTAVYYCTRGNYGVDYAMDYWGQGTSVTVSS VL: DIQMTQSPSSLSASVGDRVTITCGASENIYGALNWYQRKPGKAPKLLIYGATNLADGVPSRFSGSGSGRDYTLTISSLQPEDFATYYCQNVLITPYTFGQGTKLEIKR	4.6	1.13	8.38		
